± gives the uncertainty stated by the source.
Experiment: self-splicing fitness, log relative to wild type (ln ratio); higher = more splicing; Tetrahymena group I intron in knt gene, E. coli kanamycin selection, DiMSum; sequences stand for … in CUCUCU…GGAGGGAAAAGUUAUCAGGCAUGCACCUGGUAGCUAGUCUUUAAACCAAUAGAUUGCAUCGGUUUAAAAGGCAAGACCGUCAAAUUGCGGGAAAGGGGUCAACAGCCGUUCAGUACCAAGUCUCAGGGGAAACUUUGAGAUGGCCUUGCAAAGGGUAUGGUAAUAAGCUGACGGACAUGGUCCUAACCACGCAGCCAAGUCCUAAGUCAACAGAUCUUCUGUUGAUAUGGAUGCAGUUCACAGACUAAAUGUCGGUCGGGGAAGAUGUAUUCUUCUCAUAAGAUAUAGUCGGACCUCUCCUUAAUGGGAGCUAGCGGAUGAAGUGAUGCAACACUGGAGCCGCUGGGAACUAAUUUGUAUGCGAAAGUAUAUUGAUUAGUUUUGGAGUACUCGUGGUCG
Method in brief: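 DiMSum derived fitness as the error-weighted combination of fold changes across replicates, kanamycin versus no kanamycin, normalised to wild type. E. coli BL21(DE3) held the library, which randomised all eight P1ex-region intron nucleotides within the knt kanamycin-resistance gene on pET-22b(+). Six replicate transformations grew overnight at 37°C or 30°C on LB agar with or without 25 μg/mL kanamycin, also containing 100 μg/mL carbenicillin, 50 μM IPTG and 0.2% rhamnose, and pooled colonies were amplicon-sequenced on an Illumina HiSeq 2500.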

Sequence	self-splicing fitness (ln) (30 °C)	self-splicing fitness (ln) (37 °C)
CUGCAGCAAUAUUACGGGGC	-3.94 ± 0.22	-1.83 ± 0.18
CUGCAGCAAUAUUACGGGGU	-4.93 ± 0.45	-2.73 ± 0.2
CUGCAGCAAUAUUACGUAUC	-4.37 ± 0.19	-2.73 ± 0.18
CUGCAGCAAUAUUACGUCAA	-3.08 ± 0.17	-1.47 ± 0.12
CUGCAGCAAUAUUACGUCUG	-2.34 ± 0.16	-0.738 ± 0.17
CUGCAGCAAUAUUACGUGCA	-2.38 ± 0.13	-0.522 ± 0.1
CUGCAGCAAUAUUACGUGGG	-4.18 ± 0.18	-3 ± 0.13
CUGCAGCAAUAUUACGUUUC	-3.11 ± 0.14	-3.1 ± 0.25
CUGGAGCAAUAUUACGAAAA	-2.86 ± 0.25	-1.6 ± 0.22
CUGGAGCAAUAUUACGCCUU	–	-1.6 ± 0.43
CUGGAGCAAUAUUACGCGGU	-1.94 ± 0.1	-2.46 ± 0.24
CUGGAGCAAUAUUACGCGUA	–	-2.81 ± 0.43
CUGGAGCAAUAUUACGCUAU	-3.45 ± 0.38	-2.67 ± 0.38
CUGGAGCAAUAUUACGGCGU	-2.77 ± 0.18	–
CUGGAGCAAUAUUACGGCUU	-4.3 ± 0.42	-2.68 ± 0.33
CUGGAGCAAUAUUACGGUCU	-4.34 ± 0.32	-2.38 ± 0.29
CUGGAGCAAUAUUACGGUUU	-2.21 ± 0.15	-2.43 ± 0.26
CUGGAGCAAUAUUACGUCAU	-4.18 ± 0.25	-3.19 ± 0.4
CUGGAGCAAUAUUACGUGCA	-3.46 ± 0.41	–
CUGUAGCAAUAUUACGAACG	0.0721 ± 0.084	0.403 ± 0.1
CUGUAGCAAUAUUACGAAGA	–	-2.29 ± 0.29
CUGUAGCAAUAUUACGAAGG	-1.83 ± 0.21	-2.22 ± 0.3
CUGUAGCAAUAUUACGACGG	-2.64 ± 0.23	-1.07 ± 0.42
CUGUAGCAAUAUUACGAUAA	-3.19 ± 0.38	-1.72 ± 0.27
CUGUAGCAAUAUUACGAUUA	-2.74 ± 0.33	-1.24 ± 0.4
CUGUAGCAAUAUUACGAUUG	-1.2 ± 0.23	0.185 ± 0.22

Sequence	self-splicing fitness (ln) (30 °C)	self-splicing fitness (ln) (37 °C)
CUGUAGCAAUAUUACGCAAC	–	-2.99 ± 0.47
CUGUAGCAAUAUUACGCACG	-0.568 ± 0.12	-0.0751 ± 0.12
CUGUAGCAAUAUUACGCAUC	-3.45 ± 0.32	-2.69 ± 0.34
CUGUAGCAAUAUUACGCCCA	-1.79 ± 0.28	-2.56 ± 0.27
CUGUAGCAAUAUUACGCCCG	-0.124 ± 0.26	-0.221 ± 0.31
CUGUAGCAAUAUUACGCGCG	-0.982 ± 0.12	-0.117 ± 0.14
CUGUAGCAAUAUUACGCGGA	-2.92 ± 0.23	-2.91 ± 0.24
CUGUAGCAAUAUUACGGAGU	-3.65 ± 0.23	-2.74 ± 0.24
CUGUAGCAAUAUUACGGAUA	-2.3 ± 0.28	-2.22 ± 0.33
CUGUAGCAAUAUUACGGCAU	-3.45 ± 0.31	-1.86 ± 0.27
CUGUAGCAAUAUUACGGCGG	-2.82 ± 0.27	-1.93 ± 0.32
CUGUAGCAAUAUUACGGUUG	-0.904 ± 0.081	-0.833 ± 0.087
CUGUAGCAAUAUUACGUACC	–	-0.725 ± 0.38
CUGUAGCAAUAUUACGUCGU	-2.99 ± 0.31	-1.8 ± 0.28
CUGUAGCAAUAUUACGUCUC	-4.07 ± 0.39	–
CUGUAGCAAUAUUACGUGAA	–	-2.71 ± 0.29
CUGUAGCAAUAUUACGUGUC	-2.97 ± 0.27	-1.29 ± 0.17
CUGUAGCAAUAUUACGUUCU	-3.72 ± 0.34	-2.94 ± 0.4
CUGUAGCAAUAUUACGUUUG	-1.44 ± 0.085	-0.284 ± 0.1
CUUAAGCAAUAUUACGACAG	0.325 ± 0.096	-0.266 ± 0.12
CUUAAGCAAUAUUACGACGU	-2.75 ± 0.16	-1.44 ± 0.15
CUUAAGCAAUAUUACGAGGA	-2.64 ± 0.34	-3.43 ± 0.46
CUUAAGCAAUAUUACGAGGG	-2.95 ± 0.21	-2.85 ± 0.29
CUUAAGCAAUAUUACGAGUU	–	-2.42 ± 0.36
CUUAAGCAAUAUUACGAUUG	-1.68 ± 0.12	-1.11 ± 0.13
CUUAAGCAAUAUUACGCAUG	-2.35 ± 0.12	-1.5 ± 0.13

Sequence	self-splicing fitness (ln) (30 °C)	self-splicing fitness (ln) (37 °C)
CUUAAGCAAUAUUACGCCUG	-2.06 ± 0.1	-0.858 ± 0.089
CUUAAGCAAUAUUACGCGGA	-1.74 ± 0.25	-2.58 ± 0.44
CUUAAGCAAUAUUACGGAUA	-1.88 ± 0.36	–
CUUAAGCAAUAUUACGGCUA	-2.73 ± 0.45	–
CUUAAGCAAUAUUACGGCUG	-1.38 ± 0.13	-1.07 ± 0.17
CUUAAGCAAUAUUACGGGUG	-0.609 ± 0.049	0.489 ± 0.07
CUUAAGCAAUAUUACGUAUU	-4.4 ± 0.31	-2.25 ± 0.23
CUUAAGCAAUAUUACGUGAA	-2.87 ± 0.12	-2.55 ± 0.29
CUUAAGCAAUAUUACGUGGA	-3.7 ± 0.18	-3.42 ± 0.16
CUUAAGCAAUAUUACGUGGU	-4 ± 0.21	-2.35 ± 0.2
CUUAAGCAAUAUUACGUGUA	-3.17 ± 0.14	-2.64 ± 0.17
CUUAAGCAAUAUUACGUUAC	-2.2 ± 0.19	-2.67 ± 0.34
CUUAAGCAAUAUUACGUUUA	-2.81 ± 0.18	-2.6 ± 0.24
CUUCAGCAAUAUUACGAAGA	-3.72 ± 0.4	-2.33 ± 0.21
CUUCAGCAAUAUUACGAUAG	-0.458 ± 0.07	-0.818 ± 0.1
CUUCAGCAAUAUUACGAUCA	–	-1.38 ± 0.32
CUUCAGCAAUAUUACGAUCG	-0.136 ± 0.044	0.234 ± 0.069
CUUCAGCAAUAUUACGCAAU	-4.04 ± 0.37	-2.04 ± 0.3
CUUCAGCAAUAUUACGCCCA	-1.53 ± 0.31	-0.354 ± 0.26
CUUCAGCAAUAUUACGCCCG	-0.156 ± 0.12	-0.17 ± 0.15
CUUCAGCAAUAUUACGCCGA	–	-2.47 ± 0.31
CUUCAGCAAUAUUACGCCUA	–	-2.38 ± 0.32
CUUCAGCAAUAUUACGCGAG	-3.15 ± 0.2	-1.91 ± 0.2
CUUCAGCAAUAUUACGCGGU	-2.21 ± 0.096	-0.649 ± 0.095
CUUCAGCAAUAUUACGGCAA	-2.87 ± 0.48	-1.92 ± 0.41
CUUCAGCAAUAUUACGGCGC	-3.07 ± 0.13	-3.29 ± 0.19

Sequence	self-splicing fitness (ln) (30 °C)	self-splicing fitness (ln) (37 °C)
CUUCAGCAAUAUUACGGCUU	-3.25 ± 0.16	-3.2 ± 0.26
CUUCAGCAAUAUUACGGGCU	-3.81 ± 0.27	-2.83 ± 0.31
CUUCAGCAAUAUUACGUAAU	-2.76 ± 0.13	-0.639 ± 0.1
CUUCAGCAAUAUUACGUACC	-2.36 ± 0.3	-2.12 ± 0.24
CUUCAGCAAUAUUACGUCUU	-3.19 ± 0.16	-3.67 ± 0.42
CUUCAGCAAUAUUACGUUAU	-3.2 ± 0.26	-2.14 ± 0.28
CUUCAGCAAUAUUACGUUGA	-3.08 ± 0.25	-2.85 ± 0.24
CUUCAGCAAUAUUACGUUUG	-1.87 ± 0.082	-1.24 ± 0.091
CUUGAGCAAUAUUACGACAA	–	-2.84 ± 0.49
CUUGAGCAAUAUUACGACGG	-1.97 ± 0.2	-1.52 ± 0.26
CUUGAGCAAUAUUACGCAAU	-3.44 ± 0.32	-2.77 ± 0.38
CUUGAGCAAUAUUACGCAGC	-2.02 ± 0.3	-0.712 ± 0.28
CUUGAGCAAUAUUACGCAUA	-3.01 ± 0.36	–
CUUGAGCAAUAUUACGCCAA	-3.52 ± 0.25	-2.09 ± 0.32
CUUGAGCAAUAUUACGGGGC	-3.82 ± 0.2	-0.729 ± 0.17
CUUGAGCAAUAUUACGGGGU	-3.14 ± 0.17	-3.37 ± 0.27
CUUGAGCAAUAUUACGUACU	-4.15 ± 0.42	-3.49 ± 0.39
CUUGAGCAAUAUUACGUAGG	-1.79 ± 0.15	-0.65 ± 0.15
CUUGAGCAAUAUUACGUCAA	-3.45 ± 0.21	-2.19 ± 0.23
CUUGAGCAAUAUUACGUCGA	-1.25 ± 0.24	–
CUUGAGCAAUAUUACGUGAU	-4.13 ± 0.21	-1.96 ± 0.15
CUUGAGCAAUAUUACGUGGG	-3.3 ± 0.38	-3.17 ± 0.27
CUUUAGCAAUAUUACGAACG	0.602 ± 0.16	0.157 ± 0.19

From the supplement of paper PMC7877785
